“And” between values parts separate entries of the source, which are not always exact repeats. Equal entries are not always repeated.
Legend:
protein C zymogen (PC) = protein C zymogen (PC) (Homo sapiens, UniProt P04070); assay: Surface plasmon resonance, immobilized protein C zymogen; type: binding; conditions: DrKIn-I 31.25, 62.5, 125 nM
Protocol: A: 70 μg of DrKIn-I in 0.1 ml equilibrating buffer (20 mM Tris-HCl, pH 8.0) was applied to a 5 ml HiTrap Heparin column and eluted with a 50 ml gradient from 0.0-1.0 M NaCl. The salt concentration corresponding to the elution peak was determined to be 0.95 M. B, Binding of DrKIn-I (0.78, 1.56, 2.34, 3.13, 4.68 and 6.25 nM) to immobilized APC was assessed in buffer containing 10 mM HEPES, 0.15 M NaCl, 3 mM EDTA and 0.05% P20 at a flow rate of 60 μl/min at 25° C. […] The thin lines represent the global fit to the response data. […] Results shown are means±SD of three experiments. Representative binding traces are shown.
Biacore T200 (GE Healthcare) was used for analysis. APC or PC dissolved in 10 mM acetate buffer (pH 5.0) was immobilized on a CM5 sensor chip to a response unit (RU) of 1000 with an amine coupling kit. Associations and dissociations of DrKIn-I were performed in 10 mM HEPES (N-2-hydroxyethylpiperazine-N′-2-ethanesulfonic acid; pH 7.4), 150 mM NaCl, 3 mM EDTA (ethylenediaminetetraacetic acid) and 0.05% P20 with a flow rate of 60 μl/min. The sensor surface was regenerated with 90 μl of 2 M MgCl2 and the signals obtained were subtracted by that obtained from the reference channel that had not been coated with ligands. Binding kinetics were determined by global fitting to 1:1 Langmuir binding model using the Biaevaluation software (GE Healthcare).

trypsin = assay: Selectivity profile, amidolytic activity of trypsin; type: biochemical; conditions: equimolar DrKIn-I and enzyme active site, trypsin 5 nM
Protocol: (§1) In each of these experiments, the molar ratio of protease active site to inhibitor was 1:1. The final concentrations of these proteases and their respective substrates were as follows: FXIIa (20 nM)/S-2302 (0.2 mM), FXIa (2.5 nM)/S-2366 (0.2 mM), FXa (10 nM)/S-2222 (1.3 mM), FIXa (200 nM)/Spectrozyme FIXa (1.3 mM), FVIIa (100 nM)/S-2288 (1.3 mM), thrombin (5 nM)/T-1637 (0.2 mM), kallikrein (5 nM)/S-2302 (0.2 mM), plasmin (20 nM)/S-2251 (0.2 mM), tPA (80 nM)/Spectrozyme tPA (0.2 mM), uPA (100 nM)/S-2288 (1.3 mM), APC (10 nM)/Spectrozyme PCa (0.2 mM) and trypsin (5 nM)/S-2222 (0.2 mM). Results shown are means±SD of at least three experiments.
(§2) DrKIn-I, with or without heparin, was screened for its inhibitory activity against trypsin and also against serine proteases in the coagulation cascade (FXIIa, FXIa, FXa, FIXa, FVIIa, thrombin and kallikrein) and in the fibrinolytic system (plasmin, tPA and uPA). The amidolytic activities of these proteases were determined in the presence or absence of equimolar concentrations of DrKIn-I using their respective chromogenic substrates.

FXIa = target: T1, FXIa (Homo sapiens, UniProt P03951); assay: Selectivity profile and Ki, amidolytic activity of FXIa; type: biochemical
T1 construct: factor XIa (FXIa); purchased Haematologic Technologies
T1 sequence (P03951 388-625 limits assumed): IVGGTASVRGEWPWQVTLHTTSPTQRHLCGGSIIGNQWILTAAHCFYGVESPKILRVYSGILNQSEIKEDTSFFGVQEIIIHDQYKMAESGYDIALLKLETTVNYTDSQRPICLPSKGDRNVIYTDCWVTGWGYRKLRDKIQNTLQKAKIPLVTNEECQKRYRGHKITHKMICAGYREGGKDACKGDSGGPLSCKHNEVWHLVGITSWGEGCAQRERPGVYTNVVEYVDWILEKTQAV
T1 sequence (P03951 19-387 limits assumed): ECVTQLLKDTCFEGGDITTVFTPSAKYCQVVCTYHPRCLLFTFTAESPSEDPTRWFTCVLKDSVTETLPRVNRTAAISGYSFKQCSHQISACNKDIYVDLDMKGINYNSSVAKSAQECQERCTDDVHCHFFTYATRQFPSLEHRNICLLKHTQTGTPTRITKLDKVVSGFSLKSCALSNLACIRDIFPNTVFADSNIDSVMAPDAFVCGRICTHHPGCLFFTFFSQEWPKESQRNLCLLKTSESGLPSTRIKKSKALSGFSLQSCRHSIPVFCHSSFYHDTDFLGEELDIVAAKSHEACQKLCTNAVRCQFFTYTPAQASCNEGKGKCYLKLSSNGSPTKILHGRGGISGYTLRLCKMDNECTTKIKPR
Protocol: as §1, §2

thrombin = target: T2, thrombin (Homo sapiens, UniProt P00734); assay: Selectivity profile, amidolytic activity of thrombin; type: biochemical
T2 construct: thrombin, plasma kallikrein and plasmin were obtained; purchased Haematologic Technologies
Protocol: as §1, §2

[1] = tested on: endogenously generated APC in normal plasma; assay: Thrombin generation assay in normal plasma; type: biochemical; conditions: 200 nM DrKIn-I, 100 nM TM, 2 μg/ml heparan sulfate
Protocol: Thrombin generation in normal (A) and protein C-deficient (B) plasma. Experiments were performed in the presence of heparan sulfate (2 μg/ml). Solid lines represent thrombin generation in the presence of 100 nM thrombomodulin (TM) and varying concentrations of DrKIn-I (●, 0 nM; ▪, 40 nM; ▴, 80 nM; ◯, 200 nM). Dashed lines represent thrombin generation in the absence of TM and DrKIn-I.
Briefly, 80 μl of either normal plasma, protein C-deficient plasma, FVIII-deficient plasma or FIX deficient plasma containing 2 μM corn trypsin inhibitor, 2 μg/ml heparan sulfate (four disaccharide units long), 30 μM DOPC/DOPS/DOPE (60:20:20) and 100 nM recombinant TM was incubated with 20 μl of 500-fold diluted TF solution (Innovin; Dade Behring) in the absence or presence of the indicated concentrations of DrKIn-I. Following incubation for 3 minutes at 37° C., thrombin generation was initiated by the dispensation of 20 μl of 2.5 mM fluorogenic substrate (Z-Gly-Gly-Arg-AMC.HCl) dissolved in 0.15 M NaCl, 60 mg/ml BSA and 100 mM CaCl2. Measurements were taken at 1 minute intervals on a SpectraMax M2^e Microplate Reader using an excitation wavelength of 360 nm and an emission wavelength of 460 nm. In some assays, experiments were performed in the absence of thrombomodulin. Results were evaluated using the Technothrombin TGA software (Technoclone).

APC = APC (Homo sapiens, UniProt P04070); assay: Kinetic analysis of APC inhibition (Morrison tight binding equation); type: biochemical; design: purchased Haematologic Technologies
Protocol: Initial velocities of APC (20 nM) were measured in the presence of increasing concentrations of DrKIn-I (0-80 nM) using different concentrations of Spectrozyme PCa (●, 0.4 mM; ▪, 0.2 mM; ▴, 0.1 mM; ▾, 0.05 mM; ♦, 0.025 mM) as substrate.
APC was incubated with heparin and increasing concentrations of DrKIn-I for 3 minutes. The initial reaction velocities (mOD405 nm/min) were then determined at 37° C. after the addition of varying concentrations of Spectrozyme PCa. The final concentrations were as follows: APC (20 nM), heparin (0.1 U/ml), DrKIn-I (0-80 nM) and Spectrozyme PCa (0.025-0.4 mM). Initial velocities were plotted against inhibitor concentrations for each substrate concentration tested and the plots were subjected to nonlinear least squares regression using GraphPad Prism software. The inhibition constant (Ki) of DrKIn-I was determined by global fitting to Morrison's tight binding equation as shown below, Vs=(Vo/2Et){[Ki′+It−Et)^2+4Ki′Et]^1/2−(Ki′+It−Et) (Eq. 1) where Vs is the steady state velocity in the presence of inhibitor, while Vo is the velocity in the absence of inhibitor. It is the total inhibitor concentration and Et is the total enzyme concentration. Ki′ is the apparent inhibition constant. […] (vii) Selectivity Profile of DrKIn-I

For DrKIn-I (CGGNDNNFETRKKCRQTCGAPRKGRPT), the “binding to immobilized protein C zymogen” value (protein C zymogen (PC)) was “No binding was observed”, the inhibition of trypsin (trypsin) was ~45% and the “inhibition of FXIa” value (FXIa; equimolar DrKIn-I and enzyme active site, FXIa 2.5 nM) was ~40%. For the same substance, the Ki (FXIa; in the presence of heparin, read-out: Ki for FXIa inhibition) was 1.33 ± 0.08 nM, the “inhibitory activity against thrombin” value (thrombin) was “no inhibitory activities” and the thrombin generation [1] was “thrombin generation reached that observed in the absence of APC activity”. For the same substance, the Ki (APC; 0.1 U/ml heparin, APC 20 nM, read-out: inhibition constant (Ki)) was 0.053 nM and ~0.053 nM and ~0.05 nM and the “ratio of Ki for FXIa and plasmin to Ki for APC” value (APC; in the presence of heparin) was “at least 25 fold”.

From patent US9206246B2, “Heparin/heparan sulfate-dependent inhibitors of activated protein C and uses thereof in treating hemophilic disorders” (Academia Sinica, priority 2012, dated 2015)
